What was measured:
PvLDH = PvLDH (Plasmodium vivax, UniProt Q4PRK9 1-316); assay: X-ray crystal structure; settings: protein: recombinant; tags: His-tag (pET28a, Histrap); chain copies: 2
hLDH-B = hLDH-B (Homo sapiens, UniProt P07195 2-334); assay: EMSA; with or without Mg2+ and EDTA; EMSA: 20 mM HEPES pH 8.0, 5% glycerol, 50 mM NaCl, 5 mM KCl, 5 mM MgCl2 (or none), 5 mM DTT, 10 pmol DNA + 200 pmol protein in 20 ul, 1 h room temperature, gel; settings: protein: commercial; chain copies: 4; hairpin with bulge; stem I T3-A34 to A6-T31, stem II G16-C30 to G20-C26, hairpin-bulge contact A22-T12, A21-T13
hLDH-A = hLDH-A (Homo sapiens, UniProt P00338 2-332); assay: as above

Chain of hLDH-B (P07195 2-334): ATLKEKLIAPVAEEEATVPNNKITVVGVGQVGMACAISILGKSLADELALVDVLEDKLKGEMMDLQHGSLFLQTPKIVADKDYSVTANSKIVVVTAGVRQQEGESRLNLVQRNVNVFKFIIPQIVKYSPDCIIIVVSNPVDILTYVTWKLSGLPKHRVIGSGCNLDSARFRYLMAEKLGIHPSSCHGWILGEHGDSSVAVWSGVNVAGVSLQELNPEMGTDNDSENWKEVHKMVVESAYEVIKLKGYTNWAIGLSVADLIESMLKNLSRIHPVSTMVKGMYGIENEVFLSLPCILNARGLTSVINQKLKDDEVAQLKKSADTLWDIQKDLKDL

Binder: GTTCGATTGGATTGTGCCGGAAGTGCTGGCTCGAAC (structured_DNA) [pL1]
- binding result (PvLDH): binds
- binding result (hLDH-B): no binding
- binding result (hLDH-A): no binding
